Test results: paper PMC6623464, “HTLV-1 basic leucine zipper factor protects cells from oxidative stress by upregulating expression of Heme Oxygenase I”

Legend:
MafG-His [1] = molecular target: T1, MafG-His (UniProt O15525 1-162); assay: EMSA; EMSA: 0.5x TM (100 mM Tris-HCl pH 7.5, 20 mM MgSO4 as printed), 1 mM DTT, 1 ug BSA, 100 ng poly(dA)-poly(dT), 2-10 fmol probe, 20 C, 1 h; proteins stored in 50; settings: protein: recombinant; tags: 6xHis (pRSET A); chain copies: 2; label: 32P end label
MafG-His;T7-HBZ-bZIP [2] = molecular target: T2, MafG-His;T7-HBZ-bZIP (human?;HTLV-1, UniProt O15525;P0C746-2 1-162;120-206, |); assay: EMSA; increased over MafG alone; EMSA: 0.5x TM (100 mM Tris-HCl pH 7.5, 20 mM MgSO4 as printed), 1 mM DTT, 1 ug BSA, 100 ng poly(dA)-poly(dT), 2-10 fmol probe, 20 C, 1 h; proteins stored in 50; settings: protein: recombinant;recombinant; tags: 6xHis (pRSET A);T7; copies: 1;1; label: 32P end label
GST-HBZ = GST-HBZ (HTLV-1, UniProt P0C746-2 1-206); assay: EMSA; HBZ 50 nM, no MafG; EMSA: 0.5x TM (100 mM Tris-HCl pH 7.5, 20 mM MgSO4 as printed), 1 mM DTT, 1 ug BSA, 100 ng poly(dA)-poly(dT), 2-10 fmol probe, 20 C, 1 h; proteins stored in 50; settings: protein: recombinant; tags: GST; chain copies: 2; label: 32P end label
GST-HBZ-AD = GST-HBZ-AD (HTLV-1, UniProt P0C746-2 1-57); assay: EMSA; HBZ-AD 50 nM, no MafG; EMSA: 0.5x TM (100 mM Tris-HCl pH 7.5, 20 mM MgSO4 as printed), 1 mM DTT, 1 ug BSA, 100 ng poly(dA)-poly(dT), 2-10 fmol probe, 20 C, 1 h; proteins stored in 50; settings: protein: recombinant; tags: GST; label: 32P end label
MafG-His;T7-HBZ-bZIP [3] = molecular target: T2, MafG-His;T7-HBZ-bZIP; assay: EMSA; increased over MafG alone; MafG 0.5 nM; EMSA: 0.5x TM (100 mM Tris-HCl pH 7.5, 20 mM MgSO4 as printed), 1 mM DTT, 1 ug BSA, 100 ng poly(dA)-poly(dT), 2-10 fmol probe, 20 C, 1 h; proteins stored in 50; settings: protein: recombinant;recombinant; tags: 6xHis (pRSET A);T7; copies: 1;1; label: 32P end label
MafG-His [4] = molecular target: T1, MafG-His; assay: EMSA; MafG 0.5 or 1 nM; EMSA: 0.5x TM (100 mM Tris-HCl pH 7.5, 20 mM MgSO4 as printed), 1 mM DTT, 1 ug BSA, 100 ng poly(dA)-poly(dT), 2-10 fmol probe, 20 C, 1 h; proteins stored in 50; settings: protein: recombinant; tags: 6xHis (pRSET A); chain copies: 2; label: 32P end label
MafG-His;T7-HBZ-bZIP [5] = molecular target: T2, MafG-His;T7-HBZ-bZIP; assay: EMSA; most pronounced increase over MafG alone; EMSA: 0.5x TM (100 mM Tris-HCl pH 7.5, 20 mM MgSO4 as printed), 1 mM DTT, 1 ug BSA, 100 ng poly(dA)-poly(dT), 2-10 fmol probe, 20 C, 1 h; proteins stored in 50; settings: protein: recombinant;recombinant; tags: 6xHis (pRSET A);T7; copies: 1;1; label: 32P end label
MafG-His;T7-HBZ-bZIP [6] = molecular target: T2, MafG-His;T7-HBZ-bZIP; assay: EMSA; HBZ-bZIP diminished the MafG complex; authors conclude heterodimer does not bind; EMSA: 0.5x TM (100 mM Tris-HCl pH 7.5, 20 mM MgSO4 as printed), 1 mM DTT, 1 ug BSA, 100 ng poly(dA)-poly(dT), 2-10 fmol probe, 20 C, 1 h; proteins stored in 50; settings: protein: recombinant;recombinant; tags: 6xHis (pRSET A);T7; copies: 1;1; label: 32P end label
MafG-His [7] = molecular target: T1, MafG-His; assay: EMSA; MafG 0.5 nM; higher apparent affinity than distal MAREs; EMSA: 0.5x TM (100 mM Tris-HCl pH 7.5, 20 mM MgSO4 as printed), 1 mM DTT, 1 ug BSA, 100 ng poly(dA)-poly(dT), 2-10 fmol probe, 20 C, 1 h; proteins stored in 50; settings: protein: recombinant; tags: 6xHis (pRSET A); chain copies: 2; label: 32P end label

Sequence of GST-HBZ (P0C746 8-209, tags left off): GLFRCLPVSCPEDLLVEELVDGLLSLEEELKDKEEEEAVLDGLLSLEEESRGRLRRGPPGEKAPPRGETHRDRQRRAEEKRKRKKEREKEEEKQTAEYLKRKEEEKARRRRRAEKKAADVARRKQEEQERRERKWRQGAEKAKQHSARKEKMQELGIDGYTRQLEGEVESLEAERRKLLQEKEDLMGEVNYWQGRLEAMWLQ
Sequence of GST-HBZ-AD (P0C746 8-60, tags left off): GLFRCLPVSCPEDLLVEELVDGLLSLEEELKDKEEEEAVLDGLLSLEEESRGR

B1: MARE MT probe (dsDNA)
DNA 1: AGCTCGGAATCAATGACTCATTGTTACTCTCG
DNA 2: CGAGAGTAACAATGAGTCATTGATTCCGAGCT
binding result (MafG-His [1]): no binding

B2: HMOX1 Distal 1 MARE probe (dsDNA)
DNA 1: GTGTTTTTCCTGCTGAGTCACGGTCCCGAGGT
DNA 2: ACCTCGGGACCGTGACTCAGCAGGAAAAACAC
binding result (MafG-His;T7-HBZ-bZIP [2]): binds

B3: HMOX1 Distal 2 MARE probe (dsDNA)
DNA 1: GATCTGTTTTCGCTGAGTCACGGTCCCGGTGT
DNA 2: ACACCGGGACCGTGACTCAGCGAAAACAGATC
binding result (MafG-His;T7-HBZ-bZIP [2]): binds

B4: T-MARE probe (dsDNA)
DNA 1: AGCTCGGAATTGCTGACTCAGCATTACTCTCG
DNA 2: CGAGAGTAATGCTGAGTCAGCAATTCCGAGCT
binding result (GST-HBZ): no binding | binding result (GST-HBZ-AD): no binding | binding result (MafG-His;T7-HBZ-bZIP [3]): binds | binding result (MafG-His [4]): binds

B5: HMOX1 Distal 3 MARE probe (dsDNA)
DNA 1: TGTCTGTTTTCGCTGAGTCACGGTCTAGAGAT
DNA 2: ATCTCTAGACCGTGACTCAGCGAAAACAGACA
binding result (MafG-His;T7-HBZ-bZIP [5]): binds

B6: HMOX1 proximal MARE probe (dsDNA)
DNA 1: TGCTAGATTTTGCTGAGTCACCAGTGCCTCCT
DNA 2: AGGAGGCACTGGTGACTCAGCAAAATCTAGCA
binding result (MafG-His;T7-HBZ-bZIP [6]): no binding | binding result (MafG-His [7]): binds
